# Measured values: the RNAGym collection of RNA variant scans (doi:10.1093/molbev/msab373)
# B1: Azoarcus group I ribozyme (parent)
# chain: GUGCCUUGCGCCGGGAAACCACGCAAGGGAUGGUGUCAAAUUCGGCGAAACCUAAGCGCCCGCCCGGGCGUAUGGCAACGCCGAGCCAAGCUUCGGCGCCUGCGCCGAUGAAGGUGUAGAGACUAGACGGCACCCACCUAAGGCAAACGCUAUGGUGAAGGCAUAGUCCAGGGAGUGGCGAAAGUCACACAAACCGG
# Variants of: B1
# Test: reverse-splicing fitness (ratio to wild type); higher = more active; in vitro selection; Mg2+ level not given
# Summary of the method: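 An in vitro group I ribozyme library with randomized positions was T7-transcribed and gel-purified. In triplicate, 10 pmol RNA in EPPS pH 7.5 was reacted with 50 pmoles of a 30-nt RNA substrate for 1 h at 37 °C across several added MgCl2 levels (1–48 mM), then stopped with EDTA. Products were reverse transcribed from a substrate-complementary primer, PCR-amplified and sequenced (HiSeq 4000). Fitness is a variant's read proportion after selection over that before, normalised to wild type.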
row,Variant,reverse-splicing fitness
1,C82A A111U A120G A145C C150A C169U U176C,0.0122
2,C82A A111U A120G A145C C150A C169U U176G,0.0059
3,C82A A111U A120G A145C C150A C169U U176A,0.0189
4,C82A A111U A120U A145C C150A C169G,0.00256
5,C82A A111U A120U A145C C150A C169U,0.00267
6,C82A A111U A120U A145C C150A C169A,0.00277
7,C82A A111U A120G A145G C150G C169G U176A,0.0109
8,C82A A111U A120G A145G C150G C169G U176G,0.00619
9,C82A A111U A120G A145G C150G C169G U176C,0.0107
10,C82A A111U A120C C150A U176A,0.0129
11,C82A A111U A120C C150A U176C,0.0239
12,C82A A111U A120C C150A U176G,0.00881
13,C82A A111U A120G A145G C150G C169A U176C,0.0133
14,C82A A111U A120G A145G C150G C169A U176G,0.00821
15,C82A A111U A120G A145G C150G C169A U176A,0.0132
16,C82A A111U A120G C169A,0.0102
17,C82A A111U A120G C169G,0.0106
18,C82A A111U A120G C169U,0.00987
19,C82A A111U A120G A145U C169U U176G,0.0047
20,C82A A111U A120G A145U C169U U176A,0.0196
21,C82A A111U A120G A145U C169U U176C,0.0159

row,Variant,reverse-splicing fitness
1,C82A A111U A120G A145U C150U,0.0134
2,C82A A111U A120G A145U C150G,0.00799
3,C82A A111U A120G A145U C150A,0.00949
4,C82A A111U A120G C150A C169A U176G,0.00665
5,C82A A111U A120G C150A C169A U176C,0.0237
6,C82A A111U A120G C150A C169A U176A,0.0214
7,C82A A111U A120G A145U C150U C169A U176C,0.0139
8,C82A A111U A120G A145U C150U C169A U176A,0.0139
9,C82A A111U A120G A145U C150U C169A U176G,0.0057
10,C82A A111U A120G A145C C150G C169A U176C,0.00639
11,C82A A111U A120G A145C C150G C169A U176G,0.00554
12,C82A A111U A120G A145C C150G C169A U176A,0.00838
13,C82A A111U A120G A145G C169A U176G,0.00503
14,C82A A111U A120G A145G C169A U176C,0.0259
15,C82A A111U A120G A145G C169A U176A,0.0222
16,C82A A111U A120G A145U C150G C169U U176C,0.0125
17,C82A A111U A120G A145U C150G C169U U176A,0.0104
18,C82A A111U A120G A145U C150G C169U U176G,0.00545
19,C82A A111U A120G C150U C169G U176A,0.0175
20,C82A A111U A120G C150U C169G U176G,0.00517
21,C82A A111U A120G C150U C169G U176C,0.0205

row,Variant,reverse-splicing fitness
1,C82A A111U A120G A145U C150A C169A U176G,0.00486
2,C82A A111U A120G A145U C150A C169A U176C,0.0119
3,C82A A111U A120G A145U C150A C169A U176A,0.0146
4,C82A A111U A120C C150U C169G,0.00831
5,C82A A111U A120C C150U C169U,0.0121
6,C82A A111U A120C C150U C169A,0.0109
7,C82A A111U A120U A145C C150A U176C,0.00426
8,C82A A111U A120U A145C C150A U176G,0.00255
9,C82A A111U A120U A145C C150A U176A,0.00368
10,C82A A111U A120G A145C C150G U176A,0.00504
11,C82A A111U A120G A145C C150G U176G,0.00318
12,C82A A111U A120G A145C C150G U176C,0.00759
13,C82A A111U A120G A145G C169U U176G,0.00504
14,C82A A111U A120G A145G C169U U176C,0.0167
15,C82A A111U A120G A145G C169U U176A,0.0211
16,C82A A111U A120C C150G U176G,0.00421
17,C82A A111U A120C C150G U176C,0.0098
18,C82A A111U A120C C150G U176A,0.00671
19,C82A A111U A120U,0.0228
20,C82A A111U A120G,0.0152
21,C82A A111U A120C C169A U176C,0.0277

row,Variant,reverse-splicing fitness
1,C82A A111U A120C C169A U176G,0.00734
2,C82A A111U A120C C169A U176A,0.0222
3,C82A A111U A120G C169U U176A,0.0201
4,C82A A111U A120G C169U U176C,0.0195
5,C82A A111U A120G C169U U176G,0.00615
6,C82A A111U A120G A145C C150A U176G,0.00549
7,C82A A111U A120G A145C C150A U176A,0.00932
8,C82A A111U A120G A145C C150A U176C,0.0098
9,C82A A111U A120G A145C C150U C169G U176A,0.0224
10,C82A A111U A120G A145C C150U C169G U176C,0.0134
11,C82A A111U A120G A145C C150U C169G U176G,0.00608
12,C82A A111U A120C C150A C169G,0.0103
13,C82A A111U A120C C150A C169U,0.0129
14,C82A A111U A120C U176G,0.00616
15,C82A A111U A120C U176A,0.0152
16,C82A A111U A120C U176C,0.0279
17,C82A A111U A120G A145G U176G,0.00714
18,C82A A111U A120G A145G U176C,0.0211
19,C82A A111U A120G A145G U176A,0.0122
20,C82A A111U A120U A145C C150A,0.00524
21,C82A A111U A120G C150A C169G,0.0102
